We go through one substance from article PMC9529347.

For this experiment, the target named is SARS-CoV-1 RBD-Fc (RBD N321-P513 fused to CH2 and CH3 of mouse IgG1) (SARS-CoV-1). Kind of experiment: SPR. A general note: Surface plasmon resonance follows binding to a sensor surface in real time, without labels.

Chain of soluble human ACE2, truncated ectodomain (S19-D615), C-terminal 6xHIS-tag (Q9BYF1 19-615): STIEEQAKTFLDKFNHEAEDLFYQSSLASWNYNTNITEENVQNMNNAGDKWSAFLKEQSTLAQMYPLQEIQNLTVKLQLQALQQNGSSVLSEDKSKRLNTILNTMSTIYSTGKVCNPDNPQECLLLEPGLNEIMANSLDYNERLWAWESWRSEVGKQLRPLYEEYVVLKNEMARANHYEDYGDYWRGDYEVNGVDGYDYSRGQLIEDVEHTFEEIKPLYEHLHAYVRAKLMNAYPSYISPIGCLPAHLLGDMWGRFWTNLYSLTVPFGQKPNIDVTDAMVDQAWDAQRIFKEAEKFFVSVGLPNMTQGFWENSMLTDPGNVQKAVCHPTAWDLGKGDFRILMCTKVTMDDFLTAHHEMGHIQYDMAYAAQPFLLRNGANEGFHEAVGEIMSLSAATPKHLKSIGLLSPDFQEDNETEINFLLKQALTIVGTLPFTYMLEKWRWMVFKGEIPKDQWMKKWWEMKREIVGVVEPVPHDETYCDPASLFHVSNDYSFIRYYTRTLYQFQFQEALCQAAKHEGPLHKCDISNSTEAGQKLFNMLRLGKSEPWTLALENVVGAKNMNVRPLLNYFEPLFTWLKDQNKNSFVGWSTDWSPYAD

One may read the Kd as the concentration at which binding is half-saturated. A higher Kd goes with a looser complex. In turn, “soluble human ACE2, truncated ectodomain (S19-D615), C-terminal 6xHIS-tag (from UniProt Q9BYF1 19-615) (receptor)” came in with a Kd of 0.385 µM.
